The values below are quoted from earlier work in paper PMC3274258.

Series [1] has as its target Halobacterial transducer of SRII, truncated (NpHtrII, pHtrII) (UniProt P42259). The series can be described thus: not stated in the review (pKa determination of ref 50). The conditions noted are these: pH.
The target of another series is Asp76 (UniProt position 76, GLRYIDWLVTT).
In series [2] the target is Salinibacter transducer of SRI (SrHtrI). Put plainly: pH titration experiments (ref 123; detection not specified in the review).
Series [3] addresses HtrII (Natronomonas pharaonis) (UniProt P42259).
The target is the same in series [4]. This is another data set of the same source.
Series [5] shares this target. The source holds these as a separate data set.
Another series has as its system Asp72. The series can be described thus: pH titration; the review does not name the technique, and UV-vis absorption of the retinal chromophore is inferred. The conditions noted are these: dark state.
A further series addresses Asp193 (UniProt position 193, LTPTVDVALIV). The note with it: dark (ground) state.
The target in series [6] is Halobacterial transducer of SRI (HsHtrI). Put plainly: not stated in the review (pKa determination quoted from ref 124). The conditions noted are these: pH.

Where “and” joins values, the source holds several entries; their conditions need not be identical. Identical values can stand only once. Like-named read-outs stand apart in the source and are kept apart here.

HtrII (Natronomonas pharaonis), sequence (P42259 whole entry): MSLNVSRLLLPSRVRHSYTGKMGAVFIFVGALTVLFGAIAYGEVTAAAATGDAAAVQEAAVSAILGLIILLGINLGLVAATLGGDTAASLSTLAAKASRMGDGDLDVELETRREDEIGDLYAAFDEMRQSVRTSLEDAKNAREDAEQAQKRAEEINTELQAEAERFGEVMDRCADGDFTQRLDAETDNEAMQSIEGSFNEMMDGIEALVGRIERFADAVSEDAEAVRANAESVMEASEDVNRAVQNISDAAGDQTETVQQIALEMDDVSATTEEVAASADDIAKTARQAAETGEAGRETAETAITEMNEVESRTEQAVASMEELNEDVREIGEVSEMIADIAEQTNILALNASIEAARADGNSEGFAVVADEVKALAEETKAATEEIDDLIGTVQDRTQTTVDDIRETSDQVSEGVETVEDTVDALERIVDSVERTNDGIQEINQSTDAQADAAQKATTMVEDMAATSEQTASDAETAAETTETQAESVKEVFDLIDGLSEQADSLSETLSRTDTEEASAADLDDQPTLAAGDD
SRII, sequence (P42196 whole entry): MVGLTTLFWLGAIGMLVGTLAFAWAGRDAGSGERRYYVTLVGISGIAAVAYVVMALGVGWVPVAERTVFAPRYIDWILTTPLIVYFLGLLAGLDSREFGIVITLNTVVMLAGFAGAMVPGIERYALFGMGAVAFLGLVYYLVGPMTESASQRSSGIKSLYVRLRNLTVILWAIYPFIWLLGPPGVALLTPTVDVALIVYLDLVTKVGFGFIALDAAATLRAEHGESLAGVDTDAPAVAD
Halobacterial transducer of SRII, truncated (NpHtrII, pHtrII), sequence (P42259 whole entry, the tested form may be a part): as the sequence (P42259 whole entry) above

As for “Sensory rhodopsin II (NpSRII, pharaonis phoborhodopsin, ppR)”, in series [1], the pKa, Asp193 of NpSRII is 6.4 pH units and 5.6 pH units. The pKa is the pH at which an ionisable group is half protonated. Turning to “Sensory rhodopsin I (HsSRI) (Halobacterium salinarum)”, the figures for the pKa with Asp76 (HsSRI associated with HsHtrI) and with Asp76 (HsSRI without HsHtrI) were 8.5 and 7.2, respectively. Regarding “Salinibacter sensory rhodopsin I (SrSRI)”, in series [2], the pKa, Asp72 of SrSRI (Schiff-base counterion) was 4.3 pH units and 4.9 pH units. One may read the Kd as the free concentration of one partner at which half of the binding sites on the other are occupied at equilibrium, for simple one-to-one binding. In the case of SRII (from UniProt P42196), the equilibrium dissociation constant (Kd) in series [3] was 5 µM; in series [4], 15 µM; in [5] it was 0.16 µM.

Consider “Salinibacter sensory rhodopsin I (SrSRI) (Salinibacter ruber)”, for which, in the series on Asp72 (SrSRI without SrHtrI), the pKa was 4.3. “Sensory rhodopsin II (NpSRII; pharaonis phoborhodopsin, ppR) (Natronomonas pharaonis)”: the figures for the pKa with Asp193 (NpSRII bound to truncated NpHtrII (1-114 or 1-159)) and in the series with Asp193 (NpSRII transducer-free) were 5.6 and 6.4, respectively. Regarding Sensory rhodopsin I (HsSRI), the pKa, Asp76 of HsSRI (Schiff-base counterion) in [6] is 7.2 pH units and 8.5 pH units. Consider “SrSRI-SrHtrI fusion (Salinibacter sensory rhodopsin I fused to its full-length transducer) (Salinibacter ruber)”, for which the pKa in the series on Asp72 (SrSRI associated with SrHtrI (fusion construct)) is reported as 4.9.
